In patent publication US20220072097A1, “PEPTIDES AND METHODS FOR TREATING NEURODEGENERATIVE DISORDERS” (OHIO STATE INNOVATION FOUNDATION, priority 2016, published 2022):

B1: Full PTPσ extracellular domain: full extracellular domain of PTPσ containing all 3 IG domains and 4 FN domains (protein, UniProt Q13332 30-1282, looked up)
extracellular domain: EEPPRFIKEPKDQIGVSGGVASFVCQATGDPKPRVTWNKKGKKVNSQRFETIEFDESAGAVLRIQPLRTPRDENVYECVAQNSVGEITVHAKLTVLREDQLPSGFPNIDMGPQLKVVERTRTATMLCAASGNPDPEITWFKDFLPVDPSASNGRIKQLRSETFESTPIRGALQIESSEETDQGKYECVATNSAGVRYSSPANLYVRELREVRRVAPRFSILPMSHEIMPGGNVNITCVAVGSPMPYVKWMQGAEDLTPEDDMPVGRNVLELTDVKDSANYTCVAMSSLGVIEAVAQITVKSLPKAPGTPMVTENTATSITITWDSGNPDPVSYYVIEYKSKSQDGPYQIKEDITTTRYSIGGLSPNSEYEIWVSAVNSIGQGPPSESVVTRTGEQAPASAPRNVQARMLSATTMIVQWEEPVEPNGLIRGYRVYYTMEPEHPVGNWQKHNVDDSLLTTVGSLLEDETYTVRVLAFTSVGDGPLSDPIQVKTQQGVPGQPMNLRAEARSETSITLSWSPPRQESIIKYELLFREGDHGREVGRTFDPTTSYVVEDLKPNTEYAFRLAARSPQGLGAFTPVVRQRTLQSKPSAPPQDVKCVSVRSTAILVSWRPPPPETHNGALVGYSVRYRPLGSEDPEPKEVNGIPPTTTQILLEALEKWTQYRITTVAHTEVGPGPESSPVVVRTDEDVPSAPPRKVEAEALNATAIRVLWRSPAPGRQHGQIRGYQVHYVRMEGAEARGPPRIKDVMLADAQWETDDTAEYEMVITNLQPETAYSITVAAYTMKGDGARSKPKVVVTKGAVLGRPTLSVQQTPEGSLLARWEPPAGTAEDQVLGYRLQFGREDSTPLATLEFPPSEDRYTASGVHKGATYVFRLAARSRGGLGEEAAEVLSIPEDTPRGHPQILEAAGNASAGTVLLRWLPPVPAERNGAIVKYTVAVREAGALGPARETELPAAAEPGAENALTLQGLKPDTAYDLQVRAHTRRGPGPFSPPVRYRTFLRDQVSPKNFKVKMIMKTSVLLSWEFPDNYNSPTPYKIQYNGLTLDVDGRTTKKLITHLKPHTFYNFVLTNRGSSLGGLQQTVTAWTAFNLLNGKPSVAPKPDADGFIMVYLPDGQSPVPVQSYFIVMVPLRKSRGGQFLTPLGSPEDMDLEELIQDISRLQRRSLRHSRQLEVPRPYIAARFSVLPPTFHPGDQKQYGGFDNRGLEPGHRYVLFVLAVLQKSEPTFAASPFSDPFQLDNPDPQPIVDGEEG
modifications: extracellular domain
notes: full extracellular domain of PTPσ containing all 3 IG domains and 4 FN domains
B2: … (protein)
chain: AEESDNVDSADAEEDDSDVWWGGADTDYADGSEDKVVEVAEEEEVAEVEEEEADDDEDDEDGDEVEEEAEEPYEEATERTTSIATTTTTTTESVEEVVR
notes: recombinant human APP fragment, the region between E1 and E2 domains

Tests used:
[1] = biological target: T1, human APP fragment (SEQ ID NO:1) (Homo sapiens, UniProt P05067); assay: Kinetic ELISA binding of PTPσ fragments to human APP fragment; settings: recombinant proteins, compared with IG1,2
T1 construct: made in house
Experimental: (§1) FIG. 20 Ligand binding site of PTPσ IG1 domain interacts with APP. Binding of human APP fragment (SEQ ID NO:1) with various PTPσ fragments is measured by kinetic ELISA assay. APP fragment corresponds to SEQ ID NO:1, which is a region between E1 and E2 domains. PTPσ fragments used here include IG1,2 (containing IG1 and IG2 domains), ΔLysIG1,2 (containing IG1 and IG2 domains, with lysine 67, 68, 70, 71 mutated to alanine), IG1-FN1 (containing IG1, IG2, IG3 and FN1 domains), ECD (full extracellular domain of PTPσ containing all 3 IG domains and 4 FN domains). Value shown are mean±SEM, n=3 for each group. ***, p≤0.001, Student t test, comparison with the IG1,2.
(§2) Domain regions were subcloned from human APP695 (construct by Denis Selkoe and Tracy Yang labs purchased through Addgene.com) and PTPσ (constructs from Radu Aricescu lab). Recombinant APP and PTPσ proteins were tested in solid phase ELISA binding assays to define the binding regions on each partner. […] Comparing APP binding strength of difference PTPσ fragments, it appears that inclusion of the fibronectin (FN) domains of PTPσ weakens the interaction with APP, likely due to folding of PTPσ that covers up the ligand binding site in its IG1 domain^61.

[2] = tested on: PTPσ; assay: Solid phase ELISA binding of recombinant APP domains to PTPσ; parameters: species or system human; settings: recombinant proteins, solid phase ELISA binding assay
Experimental: as §1, §2

| Molecule | Binding of PTPσ fragment with APP SEQ ID NO:1 [1] | Interaction of APP region with PTPσ [2] |
| --- | --- | --- |
| B1 | nearly lost binding | – |
| B2 | – | high affinity |
